Measurements reported in patent US20240294638A1 (LES LABORATOIRES SERVIER, published 2024).

T1: CD94 homodimer (human, UniProt Q13241 32-179, limits assumed)
T1 sequence (looked up): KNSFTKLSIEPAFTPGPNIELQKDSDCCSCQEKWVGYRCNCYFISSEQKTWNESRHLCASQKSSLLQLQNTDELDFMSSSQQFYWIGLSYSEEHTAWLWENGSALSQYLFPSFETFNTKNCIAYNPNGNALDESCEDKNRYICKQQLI


Assays:
I225M [1] = target: T2, I225M (Homo sapiens); test: flow cytometry, CHO-S cells transiently transfected with NKG2A variant and CD94, AF647 goat anti-human IgG secondary (MFI) [cont.), panel 24208]
T2 construct: co-expressed on CHO-S cells; also called human NKG2A I225M / human CD94 heterodimer on CHO-S cells
Method: (§1) Six anti-human NKG2A antibodies were tested for binding to the different heterodimers expressed. Antibodies were tested for binding to the transfected cells in 3-fold serial dilutions from 1 μg/mL antibody, and 0 μg/ml antibody, and incubated for 30 min at 4° C. Following a washing step, the cells were incubated with a fluorescent goat anti-human IgG (H+L) secondary antibody (A-21445, Invitrogen) for 30 min at 4° C. in the dark. After a second wash, the cells were tested by high throughput flow cytometry (IQue screener, Sartorius). Data were transferred to Excel and graphs were generated using GraphPad Prism® software. A reference antibody analogue and an isotype control were included for comparison.

[2] = target: NKG2A on primary human NK cells (human, UniProt P26715 1-233); test: cell-based or functional assay
CD94 homodimer = target: T1, CD94 homodimer; test: SPR
Method: (§2) Kinetic binding analysis of anti-NKG2A monoclonal antibodies (mAbs) was performed by Surface Plasmon Resonance (SPR) using a Continuous Flow Microspotter (CFM, Wasatch Microfluidics, Salt Lake City, US) combined with an IBIS MX96 SPR instrument (IBIS Technologies, The Netherlands). The extracellular domains (ECDs) of human his-tagged NKG2A, NKG2C and FLAG-tagged CD94 were co-expressed using an Expi293™ expression system and purified by standard Ni-NTA chromatography followed by anti-Flag M2 affinity gel (A2220, Sigma). Binding kinetics were measured by capturing mAbs on a G-a-hu-IgG Fc SensEye® for 15 minutes using the CFM. After spotting, the SensEye® was positioned in the IBIS MX96 biosensor and immobilized mAbs were fixed by SensEye FixIt kit. Kinetic analysis was performed by applying a kinetic titration series injecting increasing concentrations of antigens from 1.6 nM to 400 nM as 2-fold dilutions. After each cycle of antigen injection, the surface was regenerated by 100 mM H₃PO₄, pH 3. Antigen association and dissociation were measured for 15 minutes. The recorded binding responses were fitted to a simple 1:1 binding model with Scrubber 2.0 software for calculation of the on-rate (kₒₙ or kₐ), off-rate (Koff or kd) and affinity (KD) constants. Binding kinetic parameters were measured as an average of three independent measuring points.
The binding affinities and kinetic parameters of the anti-NKG2A mAbs binding to NKG2A/CD94 and NKG2C/CD94 heterodimers are shown in Table 7. […] None of the mAbs bound to CD94 homodimer (data not shown).

[3] = target: T3, cynomolgus NKG2A and cynomolgus CD94 expressed on transiently transfected CHO-S cells (cynomolgus, UniProt Q68VD2 1-233; Q68VD4 1-179); test: blocking of PE-conjugated HLA-E pentamer binding to transiently transfected CHO-S cells, flow cytometry (percentage binding) [panel B cNKG2A]
T3 construct: whole, on cells
Method: (§3) CHO-S cells were transiently transfected with constructs for expression of human NKG2A and human CD94, human NKG2C and human CD94, cynomolgus NKG2A and cynomolgus CD94, or cynomolgus NKG2C and cynomolgus CD94. Mock transfected CHO-S cells were included in the assay as negative control. A PE-conjugated HLA-E pentamer was tested for binding to the heterodimers in the presence of anti-human NKG2A antibodies in 3-fold serial dilutions from 10 μg/mL down to 14 ng/mL antibody, and 0 μg/mL antibody. The antibodies were allowed to bind for 30 min at 4° C. prior to the addition of the HLA-E pentamer in a 1:50 dilution. The fluorescence intensity of HLA-E binding to the transfected cells was measured by high throughput flow cytometry (IQue screener, Sartorius). Data were transferred to Excel and graphs were generated using GraphPad Prism® software.

[4] = target: T4, recombinant human NKG2A/CD94 heterodimer (extracellular domains) (human, UniProt Q13241 32-179); test: SPR (IBIS MX96), mAb captured on anti-human IgG Fc, ECD heterodimer injected, 1:1 fit
T4 construct: extracellular domain; ECDs co-expressed in Expi293, purified by Ni-NTA and anti-Flag; also called HuNKG2A/huCD94; NKG2A/CD94 ECDs
Method: as §2

[5] = target: T5, recombinant human NKG2C/CD94 heterodimer (extracellular domains) (human, UniProt P26717 94-231; Q13241 32-179); test: as above
T5 construct: extracellular domain; also called HuNKG2C/huCD94; NKG2C/CD94 ECDs
Method: as §2

I225M [6] = target: T2, I225M; test: flow cytometry, CHO-S cells transiently transfected with NKG2A variant and CD94, AF647 goat anti-human IgG secondary (MFI) [cont.), panel 24135]
Method: as §1

[7] = target: T6, human NKG2A and human CD94 expressed on transiently transfected CHO-S cells (human, UniProt Q13241 1-179); test: as above
T6 construct: whole, on cells; also called human NKG2A/CD94 heterodimer
Method: as §1

[8] = target: T6, human NKG2A and human CD94 expressed on …; test: flow cytometry, transiently transfected CHO-S cells, AF647 goat anti-human IgG secondary (MFI) [cont.), panel 24135]
Method: (§4) CHO-S cells were transiently transfected with human NKG2A and human CD94, human NKG2C and human CD94, cynomolgus NKG2A and cynomolgus CD94 or cynomolgus NKG2C and cynomolgus CD94 constructs. Mock transfected CHO-S cells were included in the assay as a negative control. Antibodies were tested for binding to the transfected cells in 3-fold dilutions from 30 μg/mL down to 0.5 ng/ml antibody, and 0 μg/mL antibody, and incubated for 30 min at 4° C. Following a washing step, the cells were incubated with a fluorescent goat anti-human IgG (H+L) secondary antibody (A-21445, Invitrogen) for 30 min at 4° C. in the dark. After a second wash, the cells were tested by high throughput flow cytometry (IQue screener, Sartorius). Data were transferred to Excel and graphs were generated using GraphPad Prism® software.

[9] = target: T6, human NKG2A and human CD94 expressed on …; test: blocking of PE-conjugated HLA-E pentamer binding to transiently transfected CHO-S cells, flow cytometry (percentage binding) [panel A hNKG2A]
Method: as §3

I225M [10] = target: T2, I225M; test: flow cytometry, CHO-S cells transiently transfected with NKG2A variant and CD94, AF647 goat anti-human IgG secondary (MFI) [cont.), panel 23765]
Method: as §1

[11] = target: T6, human NKG2A and human CD94 expressed on …; test: as above
Method: as §1

I168S = target: T7, I168S (Homo sapiens); test: as above
T7 construct: co-expressed on CHO-S cells; also called human NKG2A I168S / human CD94 heterodimer on CHO-S cells
Method: as §1

[12] = target: T6, human NKG2A and human CD94 expressed on …; test: flow cytometry, transiently transfected CHO-S cells, AF647 goat anti-human IgG secondary (MFI) [cont.), panel 23765]
Method: as §4

[13] = target: T3, cynomolgus NKG2A and cynomolgus CD94 …; test: as above
Method: as §4

Chain of NKG2A on primary human NK cells (P26715 whole entry): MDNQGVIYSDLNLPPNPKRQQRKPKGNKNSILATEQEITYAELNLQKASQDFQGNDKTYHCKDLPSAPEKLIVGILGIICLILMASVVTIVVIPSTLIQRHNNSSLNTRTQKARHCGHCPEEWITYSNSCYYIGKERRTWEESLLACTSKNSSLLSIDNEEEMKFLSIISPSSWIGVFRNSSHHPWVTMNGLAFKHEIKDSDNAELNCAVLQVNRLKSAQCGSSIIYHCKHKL
T2 sequence (P26715 whole entry I225M): as the sequence (P26715 whole entry) above, with I225M counted along it
T7 sequence (P26715 whole entry I168S): as the sequence (P26715 whole entry) above, with I168S counted along it

| Binder | binding result (CD94 homodimer) | binding result [3] | Kd [4] | koff [4] | kon [4] | Kd [5] | koff [5] | kon [5] | also measured |
| --- | --- | --- | --- | --- | --- | --- | --- | --- | --- |
| antibody 24208 (antibody, human IgG1, kappa, L234A L235A, V domains shown, Fully human IgG1-LALA (L234A/L235A), kappa; also called mAb 24208; 24208 (IgG1 LALA)) VH: QVQLVESGGGLVKPGGSLRLSCAASGFTFSDYYMRWIRQAPGKGLEWVSHISTSGSTIYYADSVKGRFTISRDNAKNSLYLQMNSLRAEDTAVYYCARDHYYSRGVIGYWGQGTLVTVSS VL: DIQMTQSPSSVSASVGDRVTITCRASQGISSWLAWYQQKPGKAPKLLIYAASSLQSGVPSRFSGSGSGTDFTLTISSLQPEDFATYYCQQANSFPYTFGQGTKLEIKR | no binding | no binding (tested: 10000 ng/ml) | – | – | – | – | – | – | EC50 (read off the curve) (I225M [1]): ~0.004 µg/mL; EC50 (ug/mL) of induced NK cell cytotoxicity, median (n = 19) [2]: 0.19 µg/mL |
| BMS-NKG2A.9 (antibody, human IgG1, kappa, V domains shown) VH: EVQLVESGGGLVKPGGSLRLSCAASGFTFSSHSMNWVRQAPGKGLEWVSAISSSSSYIYYADSVKGRFTISRDNAKNSLYLQMNSLRAEDTAVYYCAREEWGLPFDYWGQGTLVTVSS VL: AIQLTQSPSSLSASVGDRVTITCRASQGISSALAWYQQKPGKAPKLLIYDASSLKSGVPSRFSGSGSGTDFTLTISSLQPEDFATYYCQQFNSYPLTFGQGTRLEIKR | – | – | – | – | – | – | – | – | EC50 (ug/mL) of induced NK cell cytotoxicity, median (n = 7) [2]: 1.07 µg/mL |
| BMS-NKG2A.11 (antibody, human IgG1, kappa, V domains shown) VH: EVQLVESGGGLVKPGGSLRLSCAASGFTFSSHSMNWVRQAPGKGLEWVSAISSSSSYIYYADSVKGRFTISRDNAKNSLYLQMNSLRAEDTAVYYCAREEWGLPFDYWGQGTLVTVSS VL: AIQLTQSPSSLSASVGDRVTITCRASQGIPSALAWYQQKPGKAPKLLIYDASSLKSGVPSRFSGSGSGTDFTLTISSLQPEDFATYYCQQFNSYPLTFGQGTRLEIKR | – | – | – | – | – | – | – | – | EC50 (ug/mL) of induced NK cell cytotoxicity, median (n = 6) [2]: 0.71 µg/mL |
| antibody 24135 (antibody, human IgG1, kappa, L234A L235A, V domains shown, Fully human IgG1-LALA (L234A/L235A), kappa; also called mAb 24135) VH: QVQLQESGPGLVKPSETLSLTCTVSGGSVSSGHYYWSWIRQPPGKGLEWIGYIYYSGSTTYNPSLKSRVSISVDTSKHQFSLKLSSVTAADTAVYYCARWAGSYQPYYYYYGMDVWGQGTTVTVSS VL: not shown | no binding | no binding (tested: 10000 ng/ml) | 3.7 nM | 0.0013 s⁻¹ | 340000 M⁻¹ s⁻¹ | 147 nM | 0.00098 s⁻¹ | 6700 M⁻¹ s⁻¹ | EC50 (read off the curve) (I225M [6]): ~0.006 µg/mL; EC50 (read off the curve) [7]: ~0.005 µg/mL; EC50 (read off the curve) [8]: ~0.02 µg/mL |
| antibody 23765 (antibody, human IgG1, kappa, L234A L235A, V domains shown, Fully human IgG1-LALA (L234A/L235A), kappa) VH: EVQLVESGGGLVKPGGSLRLSCAASGFTFSCCRMNWVRQAPGKGLEWVSSISSSSSYIYYADSVKGRFTISRDNAKNSLYLQMNSLRAEDTAVYYCARDGWNDVFDYWGQGTLVTVSS VL: EIVLTQSPATLSLSPGERATLSCRASQSVSSYLAWYQQKPGQAPRLLIYDASNRATGIPARFSGSGSGTDFTLTISSLEPEDFAVYYCQQRSNWPLTFGGGTKVEIKR | – | – | 15 nM | 0.0013 s⁻¹ | 88000 M⁻¹ s⁻¹ | 717 nM | 0.00156 s⁻¹ | 2180 M⁻¹ s⁻¹ | IC50 (read off the curve) [9]: ~0.6 µg/mL; EC50 (read off the curve) (I225M [10]): ~0.01 µg/mL; EC50 (read off the curve) [11]: ~0.01 µg/mL; EC50 (read off the curve) (I168S): ~0.01 µg/mL; EC50 (read off the curve) [12]: ~0.04 µg/mL; EC50 (read off the curve) [13]: ~0.02 µg/mL |
